{"source": "patent US20190144863", "about": "“MODULATING THE CELLULAR STRESS RESPONSE” (The General Hospital Corporation, published 2019)", "binders": {"B1": {"name": "B2 RNA domain I+II (ssRNA)", "RNA": "GGGGCUGGUGAGAUGGCUCAGUGGGUAAGAGCACCCGACUGCUCUUCCGAAGGUCCGGAGUUCAAAUCCCAGCAACCACAUGGUGGCUCACAACCAUCCGUAACG", "modifications": "[none]"}, "B2": {"name": "B2 RNA full length (ssRNA)", "RNA": "GGGGCUGGUGAGAUGGCUCAGUGGGUAAGAGCACCCGACUGCUCUUCCGAAGGUCCGGAGUUCAAAUCCCAGCAACCACAUGGUGGCUCACAACCAUCCGUAACGAGAUCUGACUCCCUCUUCUGGAGUGUCUGAAGACAGCUACAGUGUACUUACAUAUAAUAAAUAAAUAAAUCUUUAAAAAAAAA"}, "B3": {"name": "B2 RNA domain I (ssRNA)", "RNA": "GGGGCUGGUGAGAUGGCUCAGUGGGUAAGAGCACCCGACUGCUCUUCCGAAGGUCCGGAGUUCAAAUCCCAG", "modifications": "[none]"}}, "key": {"EZH2 [1]": {"target": "T1, EZH2 (UniProt Q61188 Q61188:1-746)", "T1 sequence (Q61188 whole entry, one chain of several)": "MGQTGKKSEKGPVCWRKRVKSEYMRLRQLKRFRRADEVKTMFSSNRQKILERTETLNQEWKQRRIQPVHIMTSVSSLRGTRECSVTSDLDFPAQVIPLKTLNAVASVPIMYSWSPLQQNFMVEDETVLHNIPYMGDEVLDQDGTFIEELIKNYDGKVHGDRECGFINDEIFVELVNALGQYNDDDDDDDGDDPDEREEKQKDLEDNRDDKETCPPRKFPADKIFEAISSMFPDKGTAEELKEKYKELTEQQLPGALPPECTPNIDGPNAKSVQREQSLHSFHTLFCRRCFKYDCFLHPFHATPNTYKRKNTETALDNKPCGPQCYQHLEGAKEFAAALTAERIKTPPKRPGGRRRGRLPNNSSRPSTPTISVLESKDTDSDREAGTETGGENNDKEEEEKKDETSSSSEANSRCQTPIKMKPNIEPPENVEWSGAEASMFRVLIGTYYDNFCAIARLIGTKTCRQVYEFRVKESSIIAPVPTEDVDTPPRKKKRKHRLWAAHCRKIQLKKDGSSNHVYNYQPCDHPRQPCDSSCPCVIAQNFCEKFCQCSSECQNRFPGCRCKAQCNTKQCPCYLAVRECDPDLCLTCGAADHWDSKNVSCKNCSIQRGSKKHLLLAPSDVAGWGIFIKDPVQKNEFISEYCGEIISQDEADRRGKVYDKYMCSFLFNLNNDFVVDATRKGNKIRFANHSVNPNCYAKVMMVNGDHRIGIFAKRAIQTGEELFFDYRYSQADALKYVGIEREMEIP", "assay": "filter; double-filter binding, same buffer with yeast tRNA; extremely low affinity", "settings": "label: radiolabelled (cpm)"}, "EZH2 [2]": {"target": "T1, EZH2", "assay": "FP filter; double-filter binding; 50 mM Tris pH 8.0, 100 mM NaCl, 5 mM MgCl2, 50 ng/ul yeast tRNA, 30 C", "settings": "folded; critical region nt 81-131"}}}
{"binder": "B1", "values": [{"measurement": "Kd", "setting": "EZH2 [1]", "result": "> 3000", "unit": "nM"}]}
{"binder": "CGUAACGAGAUCUGACUCCCUCUUCUGGAGUGUCUGAAGACA (ssRNA, [none])", "note": "[B2 RNA domain III]", "values": [{"measurement": "Kd", "setting": "EZH2 [1]", "result": "> 3000", "unit": "nM"}]}
{"binder": "B2", "values": [{"measurement": "Kd", "setting": "EZH2 [2]", "result": 423, "unit": "nM"}]}
{"binder": "B3", "values": [{"measurement": "Kd", "setting": "EZH2 [1]", "result": "> 3000", "unit": "nM"}]}
